Measurements published in patent US20220089694A1 (US Dept. of Health and Human Services, published 2022).

B1: EboV.YD.01 IgG (antibody, V domains shown)
VH: QVRLVQSGGGLVKPGGSLRLSCAASGFTFSTFAMHWVRQAPGKGLEWVSSISRSSGSINYADSVKGRFTISRDNAKNSLFLQMNSLRADDTAVYYCARENTIPFGGGVVLERASHFDYWGQGTTVTVSS
VL: DIRVTQSPSSLSASVGDRVTIICRASQSSSTFLNWYQQKPGKAPNLLIYAASSLQSGVPSRFSGSGSGTDFTLTISSLQPEDFATYYCQQSYSAPYTFGQGTKVDIK
B2: EboV.YD.04 IgG (antibody, V domains shown)
VH: QVQLVESGGGLVKPGGSLRLSCAASGFMFSNAWMNWVRQAPGKGLEWVGRIKSRSDGGTTDYAAPVKGRFTFSREDSKNMLYLQMNSLKREDTAVYYCTTRVSIFRGPIEDVWGQGTTVTVSS
VL: QPVLTQPPSVSGAPGQRVTISCAGSSSNIGAGYDVYWYQQLPGTAPKLLIYGNNNRPSGVPDRFSGSKSGTSASLAITGLQAEDEAEYYCQSYDSSLRDSYVFGSGTKVTVL
B3: EboV.YD.03 IgG (antibody, V domains shown)
VH: QVQLQESGPGLVKPSETLSLTCTVSGDSLSSSYWSWIRQSAGKGLEYIGRTYVSGNTKYNPSLKSRVTMSVDTSKNQFSLRLTSVTAADTAVYYCARIRVLPAAMLRGDYWYFDLWGRGTLVTVSS
VL: SYELTQLPSVSVSPGQTASITCSGDKVENKYVCWYQQKSGQSPVLVIYEDSKRPSGIPERFSGSNSGNTATLTISGTQTMDEADYFCQAWDSSIGVFGTGTKLTVL
B4: EboV.YD.02 IgG (antibody, V domains shown)
VH: QVQLVQSGAEVKKPGTSVKISCKASGYSFTSKYMHWVRQAPGQGLEWMGKINPSGGRRDYAQKFQGRVTMTRDTSTSTVYMELSSLRSGDTAVYYCARDMHGVLSWYHALDYWGQGTLVTVSS
VL: DIRVTQSPSSLSTSVGDRVTITCRASQDIGRYLNWYQQKPGKAPKLLIYGASSLQSGVPSRFSGSGSGTDFTLTISSLQPEDFATYYCQQGYRIPITFGQGTRLEIK

How the values were obtained:
[1] = molecular target: T1, EBOV GP on pseudotyped lentiviral particles (Ebola virus (EBOV), UniProt Q05320 33-676); assay: cell-based or functional assay
T1 sequence: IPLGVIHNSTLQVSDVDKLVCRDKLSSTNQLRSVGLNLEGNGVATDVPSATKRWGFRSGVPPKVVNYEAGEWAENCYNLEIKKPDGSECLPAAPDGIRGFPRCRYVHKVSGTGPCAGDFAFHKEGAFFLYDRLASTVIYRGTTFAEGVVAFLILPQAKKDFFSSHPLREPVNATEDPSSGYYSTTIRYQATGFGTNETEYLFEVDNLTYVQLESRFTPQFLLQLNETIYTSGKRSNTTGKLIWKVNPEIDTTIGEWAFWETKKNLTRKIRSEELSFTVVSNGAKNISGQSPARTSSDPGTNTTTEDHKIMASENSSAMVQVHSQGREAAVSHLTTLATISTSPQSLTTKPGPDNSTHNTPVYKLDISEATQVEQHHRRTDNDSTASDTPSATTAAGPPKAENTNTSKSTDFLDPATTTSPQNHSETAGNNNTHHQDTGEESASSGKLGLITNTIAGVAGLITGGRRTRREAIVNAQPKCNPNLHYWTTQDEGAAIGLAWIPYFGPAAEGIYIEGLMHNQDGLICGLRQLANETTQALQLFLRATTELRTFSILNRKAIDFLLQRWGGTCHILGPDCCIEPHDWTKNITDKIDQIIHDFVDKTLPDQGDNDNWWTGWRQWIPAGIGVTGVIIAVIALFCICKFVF

[2] = molecular target: T1, EBOV GP on pseudotyped lentiviral …; assay: cell-based or functional assay; remark: listed apart in the source

Binder	IC50, neutralization activity in a pseudotyped virus entry assay [1] [µg/mL]	% EBOV Neut. (10 µg/mL) [2] [%]
B1	7.1	55.1
B2	0.5	98.8
B3	1.1	97.3
B4	1.6	70.8
